Data from patent US8252764B2, “Compositions and methods of use of targeting peptides against placenta and adipose tissues” (priority 2000, dated 2012).

Assays:
GST-β3 = molecular target: T1, GST-β3 (Homo sapiens, UniProt P05106); assay: Annexin V binding to GST-β3 integrin cytoplasmic domain (ELISA)
T1 sequence (P05106 742-788 limits assumed): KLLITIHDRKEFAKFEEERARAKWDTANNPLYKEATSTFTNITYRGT
Experimental: (§1) Competitive binding assays were performed to examine the binding of Annexin V to β5 integrin and the effect of the VISY peptide. Plates were coated with GST fusion proteins of the cytoplasmic domains of various integrins and Annexin V was added to the plates. Binding of Annexin V was determined using anti-Annexin V antibodies. […] Calcium was used because Annexin V activity has been reported to be modulated by calcium. Binding of Annexin V to GST-β5 was blocked by addition of the VISY peptide (FIG. 29A).

β5 integrin = molecular target: T2, β5 integrin (Homo sapiens, UniProt P18084); assay: Annexin V binding to GST-β5 integrin cytoplasmic domain (ELISA, competition); conditions: binding dependent on the buffer: low in TBS, high in cytoplasmic buffer
T2 construct: Plates were coated with GST fusion proteins of the cytoplasmic domains of various integrins
T2 sequence (P18084 743-799 limits assumed): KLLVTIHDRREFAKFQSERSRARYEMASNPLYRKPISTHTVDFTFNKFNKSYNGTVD
Experimental: FIG. 29A. Competitive binding of Annexin V to β5 integrin with VISY peptide. Binding assays were performed by ELISA.
as §1
A reciprocal study was performed, using Annexin V to coat plates and adding GST fusion proteins of integrin cytoplasmic domains. Binding was assessed using anti-GST fusion protein antibodies. […] In some studies, calcium ion appeared to interfere with the binding interaction between GST-β5 and Annexin V, with decreased binding observed in the presence of calcium (not shown).

GST-β1 = molecular target: T3, GST-β1 (Homo sapiens, UniProt P05556); assay: Annexin V binding to GST-β1 integrin cytoplasmic domain (ELISA)
T3 construct: Plates were coated with GST fusion proteins of the cytoplasmic domains of various integrins
T3 sequence (P05556 752-798 limits assumed): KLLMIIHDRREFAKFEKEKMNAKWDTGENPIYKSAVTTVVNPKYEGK
Experimental: as §1

placenta [1] = conditions: GST conjugates-I; 1 mouse sc (predominantly) or iv ~every other day, day 4-day 17, 10 times, Total 800 μg
Description: The CARAC peptide (SEQ ID NO:12), an adipose targeting peptide (FE, TREVHRS, SEQ ID NO:13) or fd-tet phage were used as non-placental targeting controls.

placenta [2] = assay: Peptide embryotoxicity in pregnant mice; format: in vivo, mouse; conditions: subcutaneous injections from ~12 dpc
Description: FIG. 7. TPKTSVT (SEQ ID NO:5) peptide inhibits mouse pregnancy and is teratogenic. (A) Pregnancy courses (representative from 5 independent experiments) in mice subcutaneously injected with the indicated phage or peptides were monitored by daily weighing of the mice upon each injection (arrows). (B) Appearance of a normally developed 20 dpc embryo (left) for control GST fusion treatment compared to a representative 20 dpc embryo (right) resulting from TPKTSVT (SEQ ID NO:5) linked to GST fusion treatment. A severely teratogenic phenotype is observed with the placental targeting fusion peptide. (C) and […]) Hematoxylin/eosin staining of 20 dpc paraffin-embedded placentas derived from mice injected for 7 days with (C) control GST fusion or (D) the TPKTSVT (SEQ ID NO:5) linked to GST fusion peptide. Note hemorrhage (black asterisks), necrosis (white asterisks), and fibrosis (arrowheads). Bar: 500 μm (50 μm for insets).
Peptide Embryotoxicity For peptide embryotoxicity studies, agents were injected at the following daily doses: GST-peptides 0.1 mg (˜3 nMoles), FITC-peptides 50 μg (˜30 nMoles),and phage-peptides 10″ TU. All agents were dissolved in PBS. Mice were injected subcutaneously in the back (5-10 injections per course).
The phage or fusion peptides were subcutaneously injected and the progression of pregnancy was compared with mice injected with control phage, control peptides, or saline. Multiple injections of the TPKTSVT (SEQ ID NO:5) peptide were administered, starting at mid-pregnancy (˜12 days postconception, dpc) in doses non-toxic to the mother.

[3] = system: mouse villous yolk sac (vys); assay: Peptide localization in placenta (immunohistochemistry, FITC immunofluorescence); format: in vivo; conditions: 18 dpc pregnant mice, intravenous, 6 h
Experimental: Fusion and Recombinant Peptides Carboxyfluorescein (FITC)-conjugated [sequence] […] The FITC-peptide stocks were made by dissolving lyophilized peptides in DMSO to a concentration of 20 mM, after which the peptides were diluted to 1 mM with PBS (phosphate buffered saline) and aliquots were frozen until use. The [sequence] (SEQ ID NO:144) peptide and an unrelated control peptide, [sequence] (SEQ ID NO:87), fused in-frame with GST at the amino-terminus were purified to approximately 90% purity using the BugBuster GST Bind Kit (Novagen, Madison, Wis.). Purified peptides were buffer-exchanged into PBS using Centricon PL-10 columns (Millipore, Bedford, Mass.) and the aliquots were frozen until use. […]
Peptide Localization in Tissues Immunohistochemistry on sections of formalin-fixed, paraffin-embedded mouse tissue was performed as described (Pasqualini et al., 2000; Pasqualini and Ruoslahti, 1996): For phage-peptide immunolocalization, a rabbit anti-fd phage antibody (Sigma Chemicals, St. Louis, Mo.) was used at 1:1,000 dilution and detected with a secondary horseradish peroxidase (HRP)-conjugated antibody. For GST-peptide immunolocalization, a goat anti-GST antibody (Amersham, Piscataway, N.J.) was used at 1:1,000 dilution and detected with a secondary alkaline phosphatase (AP)-conjugated antibody. […]

placental transporter = assay: Phage recovery from embryos (materno-fetal transfer); format: in vivo, mouse; conditions: excess of co-injected peptide
Experimental: FIG. 4. The TPKTSVT (SEQ ID NO:5) peptide specifically binds a placental transporter. (A) Recovery of indicated phage from embryos carried by 18 dpc pregnant mice intravenously injected (tail vein) with 10^10 TU of the indicated phage 6 h prior to phage recovery or immunohistochemistry. […] TPKTSVT (SEQ ID NO:5) phage were administered alone (dark cross-hatched) or co-administered with control-GST (black) or TPKTSVT (SEQ ID NO:5) linked to GST (white bar). Shown are mean+/−SEM (standard error) from different embryos. (B-D) Anti-phage IMP immunohistochemistry (arrowheads) in paraffin sections of the vys from the corresponding mice, as indicated. Asterisks mark embryonic capillaries. Bar: 20 μm.
Phage Recovery Mouse placentas and embryonic livers were individually weighed, ground with a glass Dounce homogenizer and suspended in 1 ml of Dulbecco's Modified Eagle's Medium (DMEM) containing proteinase inhibitors (DMEM-prin—1 mM PMSF, 20 μg/ml aprotinin, and 1 μg/ml leupeptin). The suspension was vortexed and washed three times with DMEM-prin. […]
The TPKTSVT (SEQ ID NO:5) Peptide Binds to a Placental Transporter The TPKTSVT (SEQ ID NO:5) peptide localizes to the vys (FIG. 3), which is the tissue primarily responsible for materno-fetal transport in mice. […] Either TPKTSVT (SEQ ID NO:5)-phage or control phage were injected into pregnant mice and the recovery of phage from embryos was determined.

[4] = molecular target: T4, FcRn/β2m receptor complex (Mus musculus, UniProt P01887+Q61559); assay: Placental IgG transcytosis blocking; format: in vivo; conditions: 18 dpc pregnant mouse, iv, 6 h
T4 construct: from tissue; host or cells: placenta (visceral yolk sac) of 18 dpc pregnant C57BL/6 mice, in vivo
T4 sequence (Q61559 22-365): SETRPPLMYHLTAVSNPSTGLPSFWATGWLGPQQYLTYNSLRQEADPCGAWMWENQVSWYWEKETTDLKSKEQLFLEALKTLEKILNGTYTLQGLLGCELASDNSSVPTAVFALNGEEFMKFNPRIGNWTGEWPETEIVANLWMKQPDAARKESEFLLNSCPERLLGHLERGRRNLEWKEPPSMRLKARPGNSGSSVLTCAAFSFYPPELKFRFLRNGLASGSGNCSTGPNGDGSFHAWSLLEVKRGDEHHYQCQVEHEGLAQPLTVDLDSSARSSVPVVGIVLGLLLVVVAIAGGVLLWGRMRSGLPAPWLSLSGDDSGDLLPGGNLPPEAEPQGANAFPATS
T4 sequence (P01887 21-119): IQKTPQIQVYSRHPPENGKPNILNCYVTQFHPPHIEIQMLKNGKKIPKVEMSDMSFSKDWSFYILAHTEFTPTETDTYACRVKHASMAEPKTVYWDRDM
Experimental: A 18 dpc pregnant mouse was intravenously injected with: (A) 100 mg of control GST fusion or (B) TPKTSVT (SEQ ID NO:5) linked to GST. The IgG distribution in the placenta after 6 h of peptide circulation was detected by anti-mouse IgG immunohistochemistry in paraffin sections.
For in vivo peptide homing validation, 10 μl of FTC-peptide stocks diluted 20-fold with PBS or, 250 μl of 5 mg/ml GST-peptides were injected. For phage homing competition and IgG transcytosis blocking experiments, 500 μl of 5 mg/ml GST-peptides were administered intravenously.
For GST-peptide immunolocalization, a goat anti-GST antibody (Amersham, Piscataway, N.J.) was used at 1:1,000 dilution and detected with a secondary alkaline phosphatase (AP)-conjugated antibody. For mouse IgG immunolocalization, the ARK Peroxidase Kit (DAKO, Carpinteria, Calif.) was used. All immunohistochemistry and FITC immunofluorescence images were captured using an Olympus IX70 microscope and digital camera setup.

| binding of Annexin V to GST-β3 integrin (GST-β3) | binding of Annexin V to GST-β5 integrin (β5 integrin) | binding of Annexin V to GST-β1 integrin (GST-β1) | Substance | Peptide Effect on Embryo (placenta [1]) | Pregnancy Outcome (placenta [1]) | embryos on the 20th day of pregnancy (placenta [2]) | progression of pregnancy (weight gain) (placenta [2]; compared to control phage or GST-peptide) | localization in placenta [3] | effect on materno-fetal transfer / vys uptake of TPKTSVT-phage on co-injection (placental transporter) | effect on placental transfer of IgG to the vys [4] |
| --- | --- | --- | --- | --- | --- | --- | --- | --- | --- | --- |
| did not bind | bound strongly | did not bind | Annexin V: 36 kDa endogenous protein analog of the VISY peptide, GenBank GI-468888 | – | – | – | – | – | – | – |
| – | – | – | GST-PA: PA placental targeting peptide (TPKTSVT) fused to GST (glutathion S-transferase) | Pregnancy termination | No delivery or fetuses after 21 d | Growth-retarded, dead, or partially resorbed embryos | diminished weight gain | readily detectable in the apical cytoplasm of the vys | prevented internalization | blocked translocation of IgG through the placenta |
